Test results reported in patent publication US20240100176A1 (Eli Lilly, published 2024).

T1: human IL-4Rα on cells (human PBMC B cells and CD4+ T cells, Daudi cells, HEK-Blue IL-4/IL-13 cells, myeloid … (human, UniProt P24394 26-825))
T1 sequence: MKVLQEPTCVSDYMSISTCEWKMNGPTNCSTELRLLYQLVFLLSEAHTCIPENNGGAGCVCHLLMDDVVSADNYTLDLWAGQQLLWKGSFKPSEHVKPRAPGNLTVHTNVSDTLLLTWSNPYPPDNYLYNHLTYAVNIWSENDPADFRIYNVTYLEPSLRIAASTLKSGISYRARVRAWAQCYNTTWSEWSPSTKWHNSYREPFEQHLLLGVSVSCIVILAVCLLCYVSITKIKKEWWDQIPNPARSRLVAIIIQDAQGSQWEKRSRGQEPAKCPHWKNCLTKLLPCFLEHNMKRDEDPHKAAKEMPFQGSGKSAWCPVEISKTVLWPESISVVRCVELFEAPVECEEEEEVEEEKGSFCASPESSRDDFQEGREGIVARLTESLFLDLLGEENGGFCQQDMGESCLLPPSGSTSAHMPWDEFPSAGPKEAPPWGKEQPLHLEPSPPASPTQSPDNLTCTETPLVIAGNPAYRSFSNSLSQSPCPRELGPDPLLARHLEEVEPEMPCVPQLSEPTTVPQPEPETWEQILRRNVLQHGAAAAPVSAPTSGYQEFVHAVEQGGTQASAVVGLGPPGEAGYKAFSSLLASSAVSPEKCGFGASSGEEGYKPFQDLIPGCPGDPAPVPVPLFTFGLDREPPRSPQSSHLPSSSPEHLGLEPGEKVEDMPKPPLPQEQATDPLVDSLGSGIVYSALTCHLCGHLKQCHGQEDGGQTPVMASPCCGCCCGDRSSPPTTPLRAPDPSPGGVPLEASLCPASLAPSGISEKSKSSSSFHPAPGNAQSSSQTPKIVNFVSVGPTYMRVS


What was measured:
[1] = molecular target: T2, hexahistidine tagged human IL-4Rα ECD D125R (human, UniProt P24394 26-232); assay: capture ELISA: Ab1 on anti-human IgG Fc, His-tagged receptor at 0.2 µg/mL, anti-His HRP
T2 construct: not shown: hexahistidine tag
T2 sequence (P24394 26-232 D150R): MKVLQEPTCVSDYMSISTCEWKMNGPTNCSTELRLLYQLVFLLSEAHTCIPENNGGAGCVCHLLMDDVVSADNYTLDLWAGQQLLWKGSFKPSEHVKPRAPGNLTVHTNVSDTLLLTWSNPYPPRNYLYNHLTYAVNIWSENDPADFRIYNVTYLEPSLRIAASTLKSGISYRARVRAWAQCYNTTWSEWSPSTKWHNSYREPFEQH
Excerpt: (§1) Example 2d. […] Briefly, thirty surface amino acid residue substitutions were introduced individually into hexahistidine tagged human IL-4Rα extra cellular domain (ECD) as follows: K2D, E6R, K22D, P26R, T31R, F41A, L42G, L43G, E45R, E52R, G56R, D66R, A71R, Q82G, K87D, E94R, H107A, D108R, P124R, D125R, D143R, R148D, L155R, R160D, S164R, S168R, Q181R, P192R, K195D, or H197G. Each mutant protein having a single amino acid residue substitution as described above was transiently expressed in CHO cells and purified using standard immobilized metal affinity chromatography techniques. […] The plates were then washed 3 times with PBST and the exemplified human IL-4Rα antibody was added to the wells at a final concentration of 1 μg/mL in PBS-casein and incubated for 1 hour at room temperature. The plates were washed 3 times with PBST, the IL-4Rα mutant proteins were serially diluted 5-fold from 1 μg/mL for 3 points. in PBS-casein and added to the plate at 50 μL/well and incubated for 1 hour at room temperature. The plates were washed 3 times with PBST and a 1000-fold dilution of anti-histidine tag antibody HRP conjugate (R&D Systems, Cat. #MAB050H) in PBS-casein was added and incubated for 45 minutes at room temperature. The plates were washed 3 times, TMB substrate (Pierce, Cat. #34028) was added per manufacturer instructions, the reaction was quenched with H₂SO₄, and absorbance was read at 450 nm on an ELISA plate reader.

[2] = molecular target: T3, hexahistidine tagged human IL-4Rα ECD Q82G (human, UniProt P24394 26-232); assay: as above
T3 construct: not shown: hexahistidine tag
T3 sequence (P24394 26-232 Q107G): as the sequence (P24394 26-232 D150R) above, with Q82G, R125D counted along it
Excerpt: as §1

[3] = molecular target: T4, hexahistidine tagged human IL-4Rα ECD H107A (human, UniProt P24394 26-232); assay: as above
T4 construct: not shown: hexahistidine tag
T4 sequence (P24394 26-232 H132A): as the sequence (P24394 26-232 D150R) above, with H107A, R125D counted along it
Excerpt: as §1

[4] = molecular target: T5, hexahistidine tagged human IL-4Rα ECD S168R (human, UniProt P24394 26-232); assay: as above
T5 construct: not shown: hexahistidine tag
T5 sequence (P24394 26-232 S193R): as the sequence (P24394 26-232 D150R) above, with R125D, S168R counted along it
Excerpt: as §1

[5] = molecular target: T6, hexahistidine tagged human IL-4Rα ECD P124R (human, UniProt P24394 26-232); assay: as above
T6 construct: not shown: hexahistidine tag
T6 sequence (P24394 26-232 P149R): as the sequence (P24394 26-232 D150R) above, with P124R, R125D counted along it
Excerpt: as §1

[6] = molecular target: T7, hexahistidine tagged human IL-4Rα ECD T108R (human, UniProt P24394 26-232); assay: as above
T7 construct: also called D108R; not shown: hexahistidine tag
T7 sequence (P24394 26-232 T133R): as the sequence (P24394 26-232 D150R) above, with T108R, R125D counted along it

[7] = molecular target: T8, hexahistidine tagged human IL-4Rα ECD D66R (human, UniProt P24394 26-232); assay: capture ELISA, His-tagged receptor mutant
T8 construct: also called D66R IL-4Rα; not shown: hexahistidine tag
Excerpt: as §1, with “The plates were washed 3 times with PBST and a 1000-fold dilution of anti-histidine tag antibody HRP conjugate (R&D Systems, Cat. #MAB050H) in PBS-casein was added and incubated for 45 minutes at room temperature.” left out

[8] = molecular target: T1, human IL-4Rα on cells (human PBMC B …); assay: cell-based or functional assay
[9] = molecular target: T1, human IL-4Rα on cells (human PBMC B …); assay: cell-based or functional assay; remark: listed apart in the source

ELISA (OD450) [1] [OD450] | ELISA (OD450) [2] [OD450] | ELISA (OD450) [3] [OD450] | ELISA (OD450) [4] [OD450] | ELISA (OD450) [5] [OD450] | ELISA (OD450) [6] [OD450] | binding result [7] | IL-4 IC50 (nM): inhibition of IL-4 induced SEAP activity in HEK-Blue IL-4R and IL-13R expressing cells [8] [nM] | IL-13 IC50 (nM): inhibition of IL-13 induced SEAP activity in HEK-Blue IL-4R and IL-13R expressing cells [8] [nM] | Inhibition of IL-4 induced B cell proliferation, IC50 [9] [nM] | Binder
1.61 | 1.53 | 1.84 | 1.71 | 1.7 | 1.82 | no binding (tested: 1 µg/mL) | 0.08 | 0.67 |  | anti-human IL-4Rα antibody Ab1 (antibody, human IgG4 S228P, kappa, human kappa light chain; also called anti-human IL-4Rα Ab1; unconjugated Ab1) heavy: QVQLVESGGGLVQPGGSLRLSCVASGFTFSHSSMNWVRQAPGKGLEWVSYISRATGAVYYADSVKGRFTISRDNAKNSLYLQMNSLRDEDTAVYYCAREPVFDYWGQGTLVTVSSASTKGPCVFPLAPCSRSTSESTAALGCLVKDYFPEPVTVSWNSGALTSGVHTFPAVLQSSGLYSLSSVVTVPSSSLGTKTYTCNVDHKPSNTKVDKRVESKYGPPCPPCPAPEFLGGPSVFLFPPKPKDTLMISRTPEVTCVVVDVSQEDPEVKFNWYVDGVEVHNAKTKPREEQFNSTYRVVSVLTVLHQDWLNGKEYKCKVSNKGLPSSIEKTISKAKGQPREPQVYTLPPSREEMTKNQVSLTCLVKGFYPSDICVEWESNGQPENNYKTTPPVLDSDGSFFLYSRLTVDKSRWQQGNVFSCSVMHEALHNHYTQKSLSLSLG light: DIQMTQSPSAMSASVGDRVTITCRASQDISNYLAWFQQKPGKVPTRLIYAASSLQSGVPSRFSGSGSGTEFTLTISSLQPEDFATYYCLQWSSYPRTFGQGTKVEIKRTVAAPSVFIFPPSDEQLKSGTASVVCLLNNFYPREAKVQWKVDNALQSGNSQESVTEQDSKDSTYSLSSTLTLSKADYEKHKVYACEVTHQGLSSPVTKSFNRGEC
 |  |  |  |  |  |  |  |  | 1.41 | anti-human IL-4Rα Ab1 GC conjugate of Example 1b (n=4) (antibody, human IgG4 S228P, kappa, glucocorticoid receptor agonist payload-linker (GC-L, Preparation 8) conjugated to the engineered cysteines at the 124 and 378 position of the heavy chain (EU numbering); n is 4 (average DAR 4.17 by RP-HPLC, 3.85 by TOF MS)) heavy: QVQLVESGGGLVQPGGSLRLSCVASGFTFSHSSMNWVRQAPGKGLEWVSYISRATGAVYYADSVKGRFTISRDNAKNSLYLQMNSLRDEDTAVYYCAREPVFDYWGQGTLVTVSSASTKGPCVFPLAPCSRSTSESTAALGCLVKDYFPEPVTVSWNSGALTSGVHTFPAVLQSSGLYSLSSVVTVPSSSLGTKTYTCNVDHKPSNTKVDKRVESKYGPPCPPCPAPEFLGGPSVFLFPPKPKDTLMISRTPEVTCVVVDVSQEDPEVKFNWYVDGVEVHNAKTKPREEQFNSTYRVVSVLTVLHQDWLNGKEYKCKVSNKGLPSSIEKTISKAKGQPREPQVYTLPPSREEMTKNQVSLTCLVKGFYPSDICVEWESNGQPENNYKTTPPVLDSDGSFFLYSRLTVDKSRWQQGNVFSCSVMHEALHNHYTQKSLSLSLG light: DIQMTQSPSAMSASVGDRVTITCRASQDISNYLAWFQQKPGKVPTRLIYAASSLQSGVPSRFSGSGSGTEFTLTISSLQPEDFATYYCLQWSSYPRTFGQGTKVEIKRTVAAPSVFIFPPSDEQLKSGTASVVCLLNNFYPREAKVQWKVDNALQSGNSQESVTEQDSKDSTYSLSSTLTLSKADYEKHKVYACEVTHQGLSSPVTKSFNRGEC
